# According to the Human Domainome abundance scans (Beltran et al. 2025):
# ± gives the uncertainty stated by the source.
# B1: COUP transcription factor 1, residues 83 to 159; numbered along this chain, P10589 (parent)
# chain: HIECVVCGDKSSGKHYGQFTCEGCKSFFKRSVRRNLTYTCRANRNCPIDQHHRNQCQYCRLKKCLKVGMRREAVQRG
# Variants of: B1
# Test: abundance fitness (aPCA) (normalised: wild type 0, dead -1); higher = more abundant; growth selection in yeast, the domain comes from the species named
# Conditions: Homo sapiens
row,Variant,abundance fitness
1,V67P,-0.953 ± 0.14
2,V67N,-0.125 ± 0.072
3,V67C,-0.088 ± 0.069
4,V67A,-0.099 ± 0.043
5,V67M,0.099 ± 0.045
6,V67H,-0.157 ± 0.088
7,I2Q,-0.714 ± 0.41
8,I2V,-0.648 ± 0.14
9,I2K,-0.329 ± 0.22
10,I2C,-0.186 ± 0.47
11,M69D,-1.06 ± 0.22
12,M69E,-0.723 ± 0.083
13,M69H,-1.08 ± 0.26
14,M69Q,-0.831 ± 0.11
15,C46V,-0.433 ± 0.063
16,C46F,-0.501 ± 0.38
17,C46D,-0.572 ± 0.24
18,C46H,-0.536 ± 0.22
19,C46K,-0.624 ± 0.2
20,C46A,-0.519 ± 0.085
21,S26A,-0.184 ± 0.1
22,S26W,0.014 ± 0.093
23,S26I,-0.611 ± 0.43
24,S26D,-0.32 ± 0.35

row,Variant,abundance fitness
1,S26F,-0.275 ± 0.23
2,G13L,-0.358 ± 0.054
3,G13W,-1.04 ± 0.19
4,G13Q,0.074 ± 0.059
5,G13E,0.089 ± 0.065
6,G13V,-0.288 ± 0.059
7,G13P,-0.175 ± 0.067
8,S31K,-0.688 ± 0.41
9,S31C,0.075 ± 0.073
10,L36V,0.007 ± 0.05
11,L36R,-0.082 ± 0.05
12,T39N,0.103 ± 0.19
13,T39Q,0.04 ± 0.085
14,T39A,0.17 ± 0.064
15,T39D,0.12 ± 0.21
16,T39E,0.191 ± 0.087
17,T39S,0.113 ± 0.087
18,T39W,0.057 ± 0.1
19,T39V,0.013 ± 0.067
20,R34W,-0.25 ± 0.085
21,R34Q,0.018 ± 0.11
22,R34S,-0.193 ± 0.098
23,R34M,-0.002 ± 0.1
24,V5R,0.295 ± 0.062

row,Variant,abundance fitness
1,V5G,0.012 ± 0.056
2,K25L,-0.031 ± 0.058
3,K25M,0.177 ± 0.059
4,K25P,-0.492 ± 0.14
5,K25A,0.09 ± 0.043
6,K25T,0.011 ± 0.059
7,G68T,-0.677 ± 0.075
8,G68Q,-0.731 ± 0.1
9,G68E,-0.524 ± 0.06
10,F28K,-0.419 ± 0.19
11,F28Q,-0.809 ± 0.36
12,F28S,-0.813 ± 0.14
13,F28M,-0.591 ± 0.15
14,F28A,-0.809 ± 0.11
15,F28T,-1.2 ± 0.34
16,C40K,-0.384 ± 0.1
17,C40E,-0.683 ± 0.093
18,C40R,-0.864 ± 0.081
19,E22L,-0.089 ± 0.066
20,E22V,-0.064 ± 0.06
21,E22H,-0.504 ± 0.17
22,E22Q,0.181 ± 0.089
23,E22P,-0.038 ± 0.077
24,E22M,0.01 ± 0.084

row,Variant,abundance fitness
1,E22D,-0.025 ± 0.1
2,E22R,-0.504 ± 0.085
3,S11M,-0.101 ± 0.099
4,S11L,-0.281 ± 0.068
5,S11D,-0.28 ± 0.15
6,S11N,-0.155 ± 0.18
7,S11R,-0.377 ± 0.06
8,S11E,-0.314 ± 0.075
9,S11G,-0.071 ± 0.033
10,S11H,0.314 ± 0.3
11,S11T,-0.044 ± 0.082
12,S12Q,0.007 ± 0.064
13,S12W,-0.675 ± 0.12
14,S12L,-0.247 ± 0.049
15,S12A,-0.018 ± 0.05
16,L65T,-0.133 ± 0.052
17,L65K,-0.342 ± 0.06
18,L65V,-0.019 ± 0.035
19,C7A,-0.692 ± 0.1
20,C7R,-0.802 ± 0.093
21,K63I,-0.402 ± 0.1
22,K63N,-0.626 ± 0.14
23,K63H,-0.114 ± 0.085
24,K63P,-0.647 ± 0.095

row,Variant,abundance fitness
1,K63S,-0.464 ± 0.059
2,K63L,-0.337 ± 0.049
3,K63R,-0.094 ± 0.036
4,K63F,-0.372 ± 0.12
5,I48M,-0.13 ± 0.063
6,I48A,-0.366 ± 0.071
7,I48C,-0.25 ± 0.071
8,R44D,0.084 ± 0.06
9,R44W,-0.07 ± 0.051
10,R44I,0.038 ± 0.089
11,R44A,0.077 ± 0.036
12,H51N,0.102 ± 0.13
13,H51D,-0.022 ± 0.065
14,H51T,-0.091 ± 0.063
15,H51K,0.059 ± 0.064
16,H51C,-0.118 ± 0.064
17,H51P,-0.138 ± 0.077
18,H51W,0.012 ± 0.048
19,H51Q,0.081 ± 0.066
20,H51E,-0.041 ± 0.051
21,K62R,-0.073 ± 0.033
22,K62W,-0.162 ± 0.049
23,K62P,-0.573 ± 0.11
24,K62G,-0.143 ± 0.035

row,Variant,abundance fitness
1,K62A,0.044 ± 0.036
2,G17P,-0.572 ± 0.17
3,G17Q,0.044 ± 0.091
4,G17V,-0.421 ± 0.069
5,G17S,-0.191 ± 0.067
6,C59K,-0.871 ± 0.14
7,H1R,0.013 ± 0.088
8,H1C,-0.258 ± 0.19
9,H1E,-0.007 ± 0.18
10,H1T,0.074 ± 0.12
11,H1Y,0.262 ± 0.48
12,V6M,-1.06 ± 0.36
13,V6D,-0.736 ± 0.16
14,V6Y,-0.439 ± 0.31
15,V6G,-0.807 ± 0.091
16,V6K,-1.09 ± 0.38
17,V6E,-0.836 ± 0.13
18,D9L,-0.234 ± 0.084
19,D9S,-0.02 ± 0.075
20,D9I,-0.203 ± 0.17
21,G77A,0.12 ± 0.061
22,G77S,0.064 ± 0.052
23,G77E,0.06 ± 0.1
24,V32K,-0.181 ± 0.14

row,Variant,abundance fitness
1,V32G,-0.378 ± 0.047
2,V32F,-0.068 ± 0.16
3,V32W,-0.784 ± 0.12
4,V32Q,-0.299 ± 0.1
5,Q57A,-0.035 ± 0.058
6,Q57M,-0.121 ± 0.15
7,Q57T,-0.088 ± 0.1
8,Q57S,-0.059 ± 0.06
9,Q57P,-0.042 ± 0.083
10,Q57V,-0.567 ± 0.084
11,Q57E,0.183 ± 0.06
12,E72A,-0.237 ± 0.048
13,E72F,-0.316 ± 0.078
14,E72P,-0.418 ± 0.076
15,E72Q,-0.319 ± 0.055
16,E72I,-0.325 ± 0.085
17,E72M,-0.262 ± 0.052
18,Q18A,0.098 ± 0.057
19,Q18I,-0.051 ± 0.18
20,Q18C,0.187 ± 0.091
21,Q18P,0.079 ± 0.073
22,Q18M,0.067 ± 0.12
23,Q18K,-0.031 ± 0.12
